23 molecules from US20260242478A1 (published 2026) can be followed below.

Experiment [1] has as its target PSMA Fab (anti-PSMA Fab; 006 PSMA Fab). The experiment is described as follows: phage binding ELISA; clonal phage supernatant on biotinylated PSMA Fab captured on neutravidin plate; anti-M13 HRP detection. (In an ELISA, binding on a coated surface is turned into a signal by an enzyme label.)
Procedure: (§1) Clonal phage were harvested as crude supernatants and screened via standard ELISAs. […] Prior to the addition of clonal phage. wells were incubated with blocking buffer and PSMA antigen or blocking buffer alone. Without washing or aspirating, clonal phage supernatants were then added to the wells and incubated for a short time. Wells were then washed followed by detection of bound phage using a horse radish conjugated anti-M13 antibody.
For experiment [2] the target is unchanged. The experiment is described as follows: phage binding ELISA on captured PSMA Fab; wells first incubated with PSMA antigen as competitor; anti-M13 HRP detection.
Procedure: as §1
The target in experiment [3] is T1, 006 PSMA Fab.
T1 construct: also called Anti-PSMA Fab
The experiment is described as follows: phage binding ELISA; biotinylated PSMA Fab on neutravidin plate pre-incubated with PSMA antigen as competitor, clonal phage supernatant, anti-M13 HRP detection.
Procedure: as §1

The target in experiment [4] is T1, 006 PSMA Fab. The experiment is described as follows: phage binding ELISA; biotinylated PSMA Fab on neutravidin plate, clonal phage supernatant, anti-M13 HRP detection; blocking buffer alone.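 Further: before phage were added, wells were preincubated with blocking buffer either containing PSMA antigen or without it, and phage were then added with no wash in between.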
Procedure: as §1
Experiment [5] addresses T2, PSMA Fab (006 PSMA Fab).
T2 construct: also called Anti-PSMA Fab; anti-PSMA Fab
The experiment is described as follows: clonal phage ELISA; biotinylated PSMA Fab on neutravidin plate, blocking buffer alone, anti-M13-HRP detection.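 Further: crude clonal phage supernatants added without washing to wells preincubated with PSMA antigen or with blocking buffer alone, briefly incubated, then washed before bound phage detection.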
Procedure: as §1

For experiment [6], the target named is T2, PSMA Fab (006 PSMA Fab). The experiment is described as follows: clonal phage ELISA; biotinylated PSMA Fab on neutravidin plate, wells pre-incubated with PSMA antigen (competitor), anti-M13-HRP detection.
Procedure: as §1

Where no end group is shown, it is not given here.

On to MEKMCTPQWMCDMW [Phage-2725 (Peptide-180 library clone)], for which the “Phage binding ELISA signal, Anti-PSMA Fab” value in experiment [1] was 0.749. Moreover, in experiment [2], the “Phage binding ELISA signal, Anti-PSMA Fab with PSMA antigen” value came out at 0.0732.

For INKWCTPAWMCDLS [Phage-2726 (Peptide-180 library clone)], the “Phage binding ELISA signal, Anti-PSMA Fab” value in experiment [1] stood at 0.747. Also, the “Phage binding ELISA signal, Anti-PSMA Fab with PSMA antigen” value in experiment [2] was 0.0937.

As to DYKWCTPPWMCYSA [Phage-2706], the “Phage binding ELISA signal, Anti-PSMA Fab with PSMA antigen” value in experiment [3] was found to be 0.0621. Also, the “Phage binding ELISA signal, Anti-PSMA Fab” value in experiment [4] worked out at 0.804.

For PDNWCIPAWMCERF [Phage-2709], in experiment [3], the “Phage binding ELISA signal, Anti-PSMA Fab with PSMA antigen” value was 0.0679. The “Phage binding ELISA signal, Anti-PSMA Fab” value in experiment [4] is 0.793.

B1: Phage-2715 (peptide)
peptide: VYKWCTPSWMCADP
modifications: cysteine pairing not given here; also: displayed on bacteriophage as fusion to pIII, linker not given here
B1: in experiment [5], the “Phage binding ELISA signal, Anti-PSMA Fab” value came to 0.779. The “Phage binding ELISA signal, Anti-PSMA Fab in presence of PSMA antigen” value (“Phage binding ELISA signal … of PSMA antigen” below) in experiment [6] is 0.0676.

Turning to EQMWCTPAWMCTGF [Phage-2705], the “Phage binding ELISA signal, Anti-PSMA Fab with PSMA antigen” value in experiment [3] came out at 0.0782. Further, the “Phage binding ELISA signal, Anti-PSMA Fab” value in experiment [4] is 0.81.

As to DYKWCTPMWMCEVV [Phage-2723], the “Phage binding ELISA signal, Anti-PSMA Fab” value in experiment [5] was 0.753. In addition, the “Phage binding ELISA signal … of PSMA antigen” value in experiment [6] was found to be 0.0761.

On to MDRWCTPAWMCEVH [Phage-2708], for which the “Phage binding ELISA signal, Anti-PSMA Fab with PSMA antigen” value in experiment [3] turned out to be 0.0734. The “Phage binding ELISA signal, Anti-PSMA Fab” value in experiment [4] came out at 0.794.

B2: Phage-2718 (peptide)
peptide: TQKWCIPAWMCAER
modifications: cysteine pairing not given here; also: displayed on bacteriophage as fusion to pIII, linker not given here
With B2, the “Phage binding ELISA signal, Anti-PSMA Fab” value in experiment [5] worked out at 0.774. In addition, in experiment [6], the “Phage binding ELISA signal … of PSMA antigen” value was determined as 0.0702.

B3: Phage-2714 (peptide)
peptide: HEKWCVPSWMCDDW
modifications: cysteine pairing not given here; also: displayed on bacteriophage as fusion to pIII, linker not given here
With B3, in experiment [5], the “Phage binding ELISA signal, Anti-PSMA Fab” value is 0.784. For the same molecule, the “Phage binding ELISA signal … of PSMA antigen” value in experiment [6] was found to be 0.0669.

B4: Phage-2719 (peptide)
peptide: DMHWCTPQWMCAPL
modifications: cysteine pairing not given here; also: displayed on bacteriophage as fusion to pIII, linker not given here
Turning to B4, the “Phage binding ELISA signal, Anti-PSMA Fab” value in experiment [5] turned out to be 0.771. The “Phage binding ELISA signal … of PSMA antigen” value in experiment [6] was 0.0856.

DQKWCIPLWMCETR [Phage-2722]: in experiment [5], the “Phage binding ELISA signal, Anti-PSMA Fab” value is 0.762. Also, the “Phage binding ELISA signal … of PSMA antigen” value in experiment [6] came to 0.0727.

B5: Phage-2720 (peptide)
peptide: DWKWCTPSWMCAQK
modifications: cysteine pairing not given here; also: displayed on bacteriophage as fusion to pIII, linker not given here
On to B5, for which, in experiment [5], the “Phage binding ELISA signal, Anti-PSMA Fab” value is 0.769. The “Phage binding ELISA signal … of PSMA antigen” value in experiment [6] stood at 0.0639.

B6: Phage-2716 (peptide)
peptide: VANWCTPKWMCEHV
modifications: cysteine pairing not given here; also: displayed on bacteriophage as fusion to pIII, linker not given here
As for B6, the “Phage binding ELISA signal, Anti-PSMA Fab” value in experiment [5] came out at 0.777. In addition, the “Phage binding ELISA signal … of PSMA antigen” value in experiment [6] amounted to 0.0631.

B7: Phage-2711 (peptide)
peptide: NVSMCIPNWMCVGL
modifications: cysteine pairing not given here; also: displayed on bacteriophage as fusion to pIII, linker not given here
Take B7: the “Phage binding ELISA signal, Anti-PSMA Fab” value in experiment [5] came to 0.791. In addition, in experiment [6], the “Phage binding ELISA signal … of PSMA antigen” value was 0.0891.

B8: Phage-2717 (peptide)
peptide: EYTWCKPAWMCDGV
modifications: cysteine pairing not given here; also: displayed on bacteriophage as fusion to pIII, linker not given here
As for B8, the “Phage binding ELISA signal, Anti-PSMA Fab” value in experiment [5] was 0.774. Also, the “Phage binding ELISA signal … of PSMA antigen” value in experiment [6] worked out at 0.0742.

B9: Phage-2707 (peptide)
peptide: DHKWCTPPWMCAAD
modifications: cysteine pairing not given here; also: displayed on bacteriophage as fusion to pIII
B9: the “Phage binding ELISA signal, Anti-PSMA Fab with PSMA antigen” value in experiment [3] worked out at 0.0877. Also, in experiment [4], the “Phage binding ELISA signal, Anti-PSMA Fab” value turned out to be 0.797.

B10: Phage-2710 (peptide)
peptide: SVKWCTPPWMCTGL
modifications: cysteine pairing not given here; also: displayed on bacteriophage as fusion to pIII, linker not given here
In the case of B10, the “Phage binding ELISA signal, Anti-PSMA Fab” value in experiment [5] came to 0.792. The “Phage binding ELISA signal … of PSMA antigen” value in experiment [6] is 0.0767.

For EWKWCTPPWMCTTN [Phage-2724], the “Phage binding ELISA signal, Anti-PSMA Fab” value in experiment [5] came to 0.752. Also, the “Phage binding ELISA signal … of PSMA antigen” value in experiment [6] was 0.0835.

B11: Phage-2704 (peptide)
peptide: VGNWCIPLWMCAAE
modifications: cysteine pairing not given here; also: displayed on bacteriophage as fusion to pIII
Consider B11, for which the “Phage binding ELISA signal, Anti-PSMA Fab with PSMA antigen” value in experiment [3] was 0.0867. For the same molecule, the “Phage binding ELISA signal, Anti-PSMA Fab” value in experiment [4] is 0.81.

In the case of NVKWCVPHWMCEVS [Phage-2721], the “Phage binding ELISA signal, Anti-PSMA Fab” value in experiment [5] stood at 0.765. The “Phage binding ELISA signal … of PSMA antigen” value in experiment [6] is 0.0649.

B12: Phage-2712 (peptide)
peptide: WENWCRPSWMCEDT
modifications: cysteine pairing not given here; also: displayed on bacteriophage as fusion to pIII, linker not given here
On to B12, for which the “Phage binding ELISA signal, Anti-PSMA Fab” value in experiment [5] was 0.79. Also, the “Phage binding ELISA signal … of PSMA antigen” value in experiment [6] is 0.0568.

B13: Phage-2713 (peptide)
peptide: NTHWCTPSWMCSAW
modifications: cysteine pairing not given here; also: displayed on bacteriophage as fusion to pIII, linker not given here
Take B13: the “Phage binding ELISA signal, Anti-PSMA Fab” value in experiment [5] turned out to be 0.789. Besides, the “Phage binding ELISA signal … of PSMA antigen” value in experiment [6] was 0.0816.
